Laboratory results published in patent EP1032654B1, “THERMOSTABLE GLUCOAMYLASE” (Novozymes A/S, priority 1997, dated 1999).

What was measured:
Experiment in all cases: Kinetic parameters for hydrolysis of maltose and isomaltose
Conditions in all cases: other: At 45°C using 0.05 M NaOAc, pH 4.5
[1] = substrate: OC[C@H]1O[C@H](O[C@H]2[C@H](O)[C@@H](O)[C@H](O)O[C@@H]2CO)[C@H](O)[C@@H](O)[C@@H]1O; assay type: biochemical, Aspergillus niger
Description: (§1) 50 microL enzyme diluted in sodium acetate is added,and the activity was determined using the AGU standard method described above. The kinetic parameters: Kcat and Km are measured at 45°C by adding 50 microL enzyme diluted in sodium acetate to preheated 750 microL substrate. Aliquots of 100 microL are removed after 0, 3, 6, 9 and 12 minutes and transferred to 100 microL 0.4M Sodium hydroxide to stop the reaction. A blank is included.
(§2) 20 microL is transferred to a Micro titre plates and 200 microL GOD-Perid solution is added. Absorbance is measured at 650 nm after 30 minutes incubation at room temperature. Glucose is used as standard, and the specific activity is calculated as kcat (sec. ^-1)
(§3) Kinetic Parameters for Hydrolysis of Maltose and Isomaltose by Aspergillus niger AMG and the recombinant Talaromyces emersonii AMG expressed in A. niger.

[2] = substrate: OC[C@H]1O[C@H](OC[C@H]2OC(O)[C@H](O)[C@@H](O)[C@@H]2O)[C@H](O)[C@@H](O)[C@@H]1O; assay type: biochemical, Aspergillus niger
Description: as §1, §2, §3

[3] = substrate: OC[C@H]1O[C@H](O[C@H]2[C@H](O)[C@@H](O)[C@H](O)O[C@@H]2CO)[C@H](O)[C@@H](O)[C@@H]1O; assay type: biochemical, Talaromyces emersonii
Description: as §1, §2, §3

[4] = substrate: OC[C@H]1O[C@H](OC[C@H]2OC(O)[C@H](O)[C@@H](O)[C@@H]2O)[C@H](O)[C@@H](O)[C@@H]1O; assay type: biochemical, Talaromyces emersonii
Description: as §1, §2, §3

B1: Aspergillus niger AMG (glucoamylase G1), SEQ ID NO: 9 (Aspergillus niger) (protein)
chain: ATLDSWLSNEATVARTAILNNIGADGAWVSGADSGIVVASPSTDNPDYFYTWTRDSGLVLKTLVDLFRNGDTSLLSTIENYISAQAIVQGISNPSGDLSSGAGLGEPKFNVDETAYTGSWGRPQRDGPALRATAMIGFGQWLLDNGYTSTATDIVWPLVRNDLSYVAQYWNQTGYDLWEEVNGSSFFTIAVQHRALVEGSAFATAVGSSCSWCDSQAPEILCYLQSFWTGSFILANFDSSRSGKDANTLLGSIHTFDPEAACDDSTFQPCSPRALANHKEVVDSFRSIYTLNDGLSDSEAVAVGRYPEDTYYNGNPWFLCTLAAAEQLYDALYQWDKQGSLEVTDVSLDFFKALYSDAATGTYSSSSSTYSSIVDAVKTFADGFVSIVETHAASNGSMSEQYDKSDGEQLSARDLTWSYAALLTANNRRNSVVPASWGETSASSVPGTCAATSAIGTYSSVTVTSWPSIVATGGTTTTATPTGSGSVTSTSKTTATASKTSTSTSSTSCTTPTAVAVTFDLTATTTYGENIYLVGSISQLGDWETSDGIALSADKYTSSDPLWYVTVTLPAGESFEYKFIRIESDDSVEWESDPNREYTVPQACGTSTATVTDTWR
B1 showed a Km [1] of 1.2 mM, a kcat [1] of 10.7 s⁻¹ and a kcat/Km [1] of 8800 M⁻¹ s⁻¹. The Km [2] was 19.8 mM, the kcat [2] was 0.41 s⁻¹ and the kcat/Km [2] was 21 M⁻¹ s⁻¹.

B2: recombinant Talaromyces emersonii AMG (glucoamylase) expressed in A. niger, SEQ ID NO: 7 (Rasamsonia emersonii) (protein)
chain: ATGSLDSFLATETPIALQGVLNNIGPNGADVAGASAGIVVASPSRSDPNYFYSWTRDAALTAKYLVDAFIAGNKDLEQTIQQYISAQAKVQTISNPSGDLSTGGLGEPKFNVNETAFTGPWGRPQRDGPALRATALIAYANYLIDNGEASTADEIIWPIVQNDLSYITQYWNSSTFDLWEEVEGSSFFTTAVQHRALVEGNALATRLNHTCSNCVSQAPQVLCFLQSYWTGSYVLANFGGSGRSGKDVNSILGSIHTFDPAGGCDDSTFQPCSARALANHKVVTDSFRSIYAINSGIAEGSAVAVGRYPEDVYQGGNPWYLATAAAAEQLYDAIYQWKKIGSISITDVSLPFFQDIYPSAAVGTYNSGSTTFNDIISAVQTYGDGYLSIVEKYTPSDGSLTEQFSRTDGTPLSASALTWSYASLLTASARRQSVVPASWGESSASSVPAVCSATSATGPYSTATNTVWPSSGSGSSTTTSSAPCTTPTSVAVTFDEIVSTSYGETIYLAGSIPELGNWSTASAIPLRADAYTNSNPLWYVTVNLPPGTSFEYKFFKNQTDGTIVWEDDPNRSYTVPAYCGQTTAILDDSWQ
B2 showed a Km [3] of 3.8 mM, a kcat [3] of 30.6 s⁻¹ and a kcat/Km [3] of 8100 M⁻¹ s⁻¹. The Km [4] was 53.6 mM, the kcat [4] was 2.70 s⁻¹ and the kcat/Km [4] was 50 M⁻¹ s⁻¹.
